This data set deals with the molecule itself. Briefly: size exclusion chromatography (Superdex 75), self-association. On the technique in general: Size exclusion chromatography separates by hydrodynamic size, large species first.

B1: HCV NS3 helicase subdomain I (181-324,R257E) mutant (enzyme)
chain: SPVFTDNSSPPAVPQSFQVAHLHAPTGSGKSTKVPAAYAAQGYKVLVLNPSVAATLGFGAYMSKAHGVDPNIRTGVETITTGSPITYSTYGKFLADGGCSGGAYDIIICDECHSTDATSILGIGTVLDQAETAGARLVVLATAT
notes: also called subdomain I mutant; product of pNS3(181-324,R257E)
Take B1: the binding result is “no binding (tested: 6 mg/ml)”.

The values above are taken from US20040253577A1 (SCHERING, published 2004).
